“Also recorded” adds a separate entry of the source.
Columns and labels:
Parameters in all cases: species or system DBA/2J mice
Settings in all cases: mouse, in vivo
IAV (WSNHAnc-Asp225Gly) [1] = tested on: IAV (WSNHAnc-Asp225Gly)
IAV (WSNHAnc-Asp225Gly) [2] = tested on: IAV (WSNHAnc-Asp225Gly); remark: listed apart in the source
IAV (WSNHAnc-Asp225Gly) [3] = tested on: IAV (WSNHAnc-Asp225Gly); remark: listed apart in the source

B1: KGF: keratinocyte growth factor, a potent pulmonary epithelial mitogen; cognate receptor FGFR2 (protein, UniProt P21781 32-194, looked up)
Fibroblast growth factor 7: CNDMTPEQMATNVNCSSPERHTRSYDYMEGGDIRVRRLFCRTQWYLRIDKRGKVKGTQEMKNNYNIMEIRTVAVGIVAIKGVESEFYLAMNKEGKLYAKKECNEDCNFKELILENHYNTYASAKWTHNGGEMFVALNQKGIPVRGKKTKKEQKTAHFLPMAIT
KGF dose of maximal effect on IAV-induced mortality (IAV (WSNHAnc-Asp225Gly) [1]): 5 mg/kg
mortality after KGF pretreatment (IAV (WSNHAnc-Asp225Gly) [1]): did not enhance mortality
mortality, dose response (IAV (WSNHAnc-Asp225Gly) [1]): dose-dependent acceleration of mortality
shortening of survival (IAV (WSNHAnc-Asp225Gly) [1]): 3 days
pulmonary viral burden vs PBS/IAV controls (IAV (WSNHAnc-Asp225Gly) [2]): three- to fivefold greater; also recorded: No difference in viral burden
IAV-NP staining of lung sections (IAV (WSNHAnc-Asp225Gly) [3]): substantially more intense; also recorded: markedly more intense and diffuse
blinded semiquantitative analysis of IAV-NP staining (IAV (WSNHAnc-Asp225Gly) [3]): KGF-induced increase in viral burden and acceleration of spread
